What was measured:
Assay in all cases: cell-based or functional assay
[1] = target: T1, smt3-mATGL288-StrepII I212S (mouse, UniProt Q8BJ56 1-288, I212S)
T1 sequence (looked up): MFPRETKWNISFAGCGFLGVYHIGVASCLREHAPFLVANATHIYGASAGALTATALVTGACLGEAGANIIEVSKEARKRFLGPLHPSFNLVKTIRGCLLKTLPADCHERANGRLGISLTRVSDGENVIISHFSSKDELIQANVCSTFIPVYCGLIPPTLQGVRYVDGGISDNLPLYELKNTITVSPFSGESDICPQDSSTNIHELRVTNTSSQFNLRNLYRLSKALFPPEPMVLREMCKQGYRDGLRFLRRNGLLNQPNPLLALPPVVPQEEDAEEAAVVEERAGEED

[2] = target: T2, smt3-mATGL288-StrepII I212A (mouse, UniProt Q8BJ56 1-288, I212A)
T2 sequence (looked up): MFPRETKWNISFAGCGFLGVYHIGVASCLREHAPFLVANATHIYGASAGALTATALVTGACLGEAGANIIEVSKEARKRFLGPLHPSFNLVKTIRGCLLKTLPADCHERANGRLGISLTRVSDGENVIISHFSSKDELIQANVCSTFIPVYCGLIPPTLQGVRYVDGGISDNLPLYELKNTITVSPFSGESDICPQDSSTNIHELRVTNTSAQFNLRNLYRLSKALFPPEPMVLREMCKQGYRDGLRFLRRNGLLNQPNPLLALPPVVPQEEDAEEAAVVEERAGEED

[3] = target: T3, smt3-mATGL288-StrepII (mouse adipose triglyceride lipase truncated after D288), wild type (mouse, UniProt Q8BJ56 1-288)
T3 sequence (looked up): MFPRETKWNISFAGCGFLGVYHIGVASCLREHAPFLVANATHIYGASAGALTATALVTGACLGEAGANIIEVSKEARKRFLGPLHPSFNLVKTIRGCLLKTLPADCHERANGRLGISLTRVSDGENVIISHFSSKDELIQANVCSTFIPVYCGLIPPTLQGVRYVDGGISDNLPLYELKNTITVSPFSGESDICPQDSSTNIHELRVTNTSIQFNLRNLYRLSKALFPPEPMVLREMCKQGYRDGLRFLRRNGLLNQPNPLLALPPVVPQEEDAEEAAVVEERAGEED

[4] = target: T4, smt3-mATGL288-StrepII N209A (mouse, UniProt Q8BJ56 1-288, N209A)
T4 sequence (looked up): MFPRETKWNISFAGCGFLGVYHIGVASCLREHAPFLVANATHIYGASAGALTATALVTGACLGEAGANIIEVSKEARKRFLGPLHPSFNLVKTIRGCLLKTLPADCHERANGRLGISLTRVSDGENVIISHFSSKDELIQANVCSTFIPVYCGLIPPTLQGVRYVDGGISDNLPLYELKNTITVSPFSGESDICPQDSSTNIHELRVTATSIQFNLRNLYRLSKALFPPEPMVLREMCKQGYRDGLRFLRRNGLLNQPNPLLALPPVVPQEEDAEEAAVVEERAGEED

[5] = target: T5, smt3-mATGL288-StrepII N215A (mouse, UniProt Q8BJ56 1-288, N215A)
T5 sequence (looked up): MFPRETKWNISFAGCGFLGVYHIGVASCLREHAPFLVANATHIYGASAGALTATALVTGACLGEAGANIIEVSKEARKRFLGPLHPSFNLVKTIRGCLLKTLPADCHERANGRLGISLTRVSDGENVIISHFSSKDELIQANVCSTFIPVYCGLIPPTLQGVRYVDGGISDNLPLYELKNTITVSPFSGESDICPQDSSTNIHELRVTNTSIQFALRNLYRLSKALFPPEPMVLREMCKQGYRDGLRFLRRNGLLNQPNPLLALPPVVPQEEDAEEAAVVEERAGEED

EC50 of mCGI-58 for co-activation of the TG hydrolase activity of mATGL288 I212S (25 ug bacterial lysate, purified mCGI-58 up to 2300 nM) [1]: ~200 nM | EC50 of mCGI-58 for co-activation of the TG hydrolase activity of mATGL288 I212A (25 ug bacterial lysate, purified mCGI-58 up to 2300 nM) [2]: ~500 nM | EC50 of mCGI-58 for co-activation of the TG hydrolase activity of mATGL288 (25 ug bacterial lysate, purified mCGI-58 up to 2300 nM) [3]: 178 nM | EC50 of mCGI-58 for co-activation of the TG hydrolase activity of mATGL288 N209A (25 ug bacterial lysate, purified mCGI-58 up to 2300 nM) [4]: ~500 nM | EC50 of mCGI-58 for co-activation of the TG hydrolase activity of mATGL288 N215A (25 ug bacterial lysate, purified mCGI-58 up to 2300 nM) [5]: ~200 nM
B1: smt3-mCGI-58-His6 (mouse comparative gene identification-58) (natural protein, UniProt Q9DBL9 1-351, looked up)
chain: MKAMAAEEEVDSADAGGGSGWLTGWLPTWCPTSTSHLKEAEEKMLKCVPCTYKKEPVRISNGNRIWTLMFSHNISSKTPLVLLHGFGGGLGLWALNFEDLSTDRPVYAFDLLGFGRSSRPRFDSDAEEVENQFVESIEEWRCALRLDKMILLGHNLGGFLAAAYSLKYPSRVSHLILVEPWGFPERPDLADQERPIPVWIRALGAALTPFNPLAGLRIAGPFGLSLVQRLRPDFKRKYSSMFEDDTVTEYIYHCNVQTPSGETAFKNMTIPYGWAKRPMLQRIGGLHPDIPVSVIFGARSCIDGNSGTSIQSLRPKSYVKTIAILGAGHYVYADQPEEFNQKVKEICHTVD
